Source: the supplement of paper PMC9170038

system: MS2 coat protein; assay: apparent KD of MS2 coat protein; higher = weaker reporter binding; details: Eterna round: R107; input ligand: theophylline 20 uM
How it was run: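 The buffer was 100 mM Tris-HCl pH 7.5 with 80 mM KCl and 4 mM MgCl2, used without or with constant ligand. In it, RNA switches transcribed on-chip from Illumina sequencing clusters were titrated with SNAP-549-labelled MS2 coat protein in twofold steps from 0.7 or 1.5 nM to 3 µM. Apparent KD for each design is the median of its normalised cluster binding-curve fits.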

Sequence	apparent KD of MS2 coat protein
GACGCAUGAGUUGGAACAGCUCAUGGGUCGCGAGGACCGGUACGGCCGCCACUCGGCUGUACAUGAGGAUCACCCAUGUCAGGGU [#1 Same State - Tryptophan A Attempt #30 (HarryS)]	329 nM
AUCGUACCUGAUGAUACCAGCAUGUGCUCGUAACAUGAGGAUCACCCAUGUGAUCAGUGAUGCCCUUGGCAGCAUGAUCGGUACA [Same State - Theophylline B (Freestyle 16)]	49.2 nM
AGACAUGAGGAUCACCCAUGUAGUAUGGAUACCAGAUCCAGAUUUAUCCCUUGGCAGCUGUGGUACAGCGUUGGAUCGCUCCUAG [Exclusion - Theophylline A (Freestyle 12)]	34.6 nM
AACAUGAGGAUCACCCAUGUGUCCUCGAAACGAGGACCGGUACGGCCGCCACUCGAAAUAAGCUGUUGACGAAAAGUCAGCAGCA [Mat - Exclusion - Trytophan A - D20]	300 nM
CGAGUCCGCUGAUGGGCUAAGUCAGGUGAUACCAGCCACUCCCGCGGCCCUUGGCAGCACAUGAGGAUCACCCAUGUAGGGCUUG [Iserbele]	51.1 nM
AAUAUAAAAUAAAGAAAAUUUAUAUCUGAUACCAGACUCUCAUGGGUCCCUUGGCAGCAGUAACAUGAGGAUCACCCAUGUAUUA [JR_Nu_SSTheophyA_Sub026]	70.6 nM
UAAAACAUGAGGAUCACCCAUGUAAUUGAUACCAGAGUGAUGAUCCUCCCUUGGCAGCAAAACGCUGAUUGGAAACAAUCAGCGA [Mat - Same State Theophlline A - Mod of Eli - D25]	102 nM
AUAACUGUCAAGGAAGGUGAUCCAGCAGAUACCAGCUAGGAAACUAGCCCUUGGCAGCUGCAACAUGAGGAUCACCCAUGUAAUA [(T)'-(M)'-(T1)-(T2)-(M1)-(M2)_Design9]	135 nM
ACAUGAGGAUCACCCAUGUAAUAAUCAGAAGGAGCGUGGAAUAACACAGGUAGGUCGCUGAUGUUUUGUUAAAAUUAUUCGUGAA [JR_SSArginiA_Sub002]	16.9 nM
UGUUUUGUGGGAAGGAGCGCAUACUUCACAUGAGGAUCACCCAUGUCAAGACGUGAGUCAGUGCAGGUAGGUCGCCUAGUUAAGA [Same State - Arginine B (Freestyle 16)]	59 nM
UAAUAAGUACCGGUCCUCAGAUCCUCAUGUCGAGGACCGGUACGGCCGCCACUCGAAACAUGAGGAUCACCCAUGUAAUAAUAAU [#06 Exclusion Tryptophan A]	52.6 nM
AUUGACAUGAGGAUCACCCAUGUAUCCGAAGGAGCGGCAGAUGUGCCAGGUAGGUCGCGGGUGAAAGAGACAUCGUAGGGUGUCG [Same State - Arginine A / B [only NuPack]]	207 nM
AAUUAUUUCUCAAUUAUUUAAUCUUCAGAAGGAGCGUGAUGAUUCACAGGUAGGUCGCUGAUGACAUGAGGAUCACCCAUGUAUU [JR_SSArginiA_Sub003]	31.1 nM
GCUACAUGAGGAUCACCCAUGUAUGCGAGUCGAGGACCGGUACGGCCGCCACUCGCUUAACAUGAGGAUCACCCAUGUUACUCGC [SSTA DOUBLE!!! :-D #19]	106 nM
GGGCAAGAGGGAAGGAGCGUCAGCUGAGUAACAUGAGGAUCACCCAUGUAGCACAUAGUGUGACAGGUAGGUCGCCCUCUGCCCU [SS-ArgB6]	10.4 nM
UGUAUGUGAUCUGAUACCAGAGUGACGCGAAAGCGACCUGAGGAUCACCCUGGUAAAUAACUCCCUUGGCAGCAGAUCGCAUACU	36.6 nM
ACAUGAGGAUCACCCAUGUGUGUAAGUCCUCGAGGACCGGUACGGCCGCCACUCGAACGAGUGAAGCCUGAUACUAAGUAUCAGG [SS Trp A s5]	20.7 nM
GUAUGAGUUGACUGUGAGACUGGCGUGGAAGGAGCGCACGGAGGUGCAGGUAGGUCGCCACAUGAGGAUCACCCAUGUCAGGCCG [Ceedtila]	56.4 nM
UAUCGUCAGACGGCCGCCACUAGAACAUGAGGAUCACCCAUGUACGGCCGCCCGGUGUGAUCCACUAGGACCGGGUCUGACGAAU [(Trp1)-(Ms2)-(T)'-(M)'-(Trp2)_Design23]	77.9 nM

same assay, conditions: Eterna round: R107; input ligand: theophylline 2 mM

Sequence	apparent KD of MS2 coat protein
GCCAUCGGCGAAAGCCGAUGGUAUACAGAAGGAGCGCACGAAAGUGCAGGUAGGUCGCUGAACAUGAGGAUCACCCAUGUAAUAA [#29 Same State - Arginine A]	22.9 nM
AGCAAGUUCGGAAGGAGCGGUACAUGAGGAUCACCCAUGUAUUCAAUCGUGAUCGGAACGUGCCAGGUAGGUCGCCGAAUGCGUC [XArg-B1]	15.9 nM
GGGUACAUCGCGGCCGCCACUCAUGUAAAUGCAUGAGGAACACCCAUGCCGAUGGAGACAUCGGAGAGGACCGGGUGAUGUACCG	148 nM
GCUUGGGUCGCACGGCCCUGGCGGUGCGAUACCAGCACGGUAACGUGCCCUUGGCAGCGCACAUGAGGAUCACCCAUGUGGUGCG [#1 Exclusion - Theophylline A Attempt #23 (HarryS)]	264 nM
GGGCAAGAGGGAAGGAGCGUCAGCUGAGUCACAUGAGGAUCACCCAUGUCGCACAUAGUGUGACAGGUAGGUCGCCCUCUGCCCU [Zaistiqu]	201 nM
CCUAUAUAGUCGGCCGCCACUGACUACAUGAGGAUCACCCAUGUAACACGAACAUGGUCCUGGAUCAGGACCGGGACUAUAUAGG [Tryp B Ex t5]	22.2 nM
AUACAUGAGGAUCACCCAUGUAUAGAUGAAGGAGCGACCAGAGGGUCAGGUAGGUCGCAUCACAUGAGGAUCACCCAUGUAUUUU [DOUBLE!!! :-D #10]	64.4 nM
UGUAUGGACUGAAGGAGCGGGUUGAUAACUUGAGGAUCACCCAGGUAAAAGGCGAAAGCCACCCAGGUAGGUCGCAGUCCAUACU	69.2 nM
AUGGUCGACGAUCUGCGAAAAGCAGAUCGACGAGGACCGGUACGGCCGCCACUCGUGUUCAUUAAACAUGAGGAUCACCCAUGUA [#15Tryptophan A Same State]	70.2 nM
ACACAUGACGCGGCCGCCACUGCAACAUGAGGAUCACCCAUGUCACCCAUGUAUGACAUGAGGAUCAGGACCGGGCGUGUGUGGA [Same State Tryptophan B 3]	580 nM
AGUAUUGGAAACAGUACUAGUGAUCCGGUCCGAGGACCGGUACGGCCGCCACUCGAAUUAAAUAAACAUGAGGAUCACCCAUGUA [Ex Tryptophan A 15]	20.6 nM
CACAUGAGGAUCACCCAUGUCUGAACUGAAGGAGCGCUAAAUAAGGCAGGUAGGUCGCGGAAUUUUGUGUGCAUAUGCAUAUGGG [9.M]	34.2 nM
AUUCAUGGAAACAUGACAUAGGGAUCCGGUCGAGGACCGGUACGGCCGCCACUCGUUUGGAGGCACAUGAGGAUCACCCAUGUUA [SS Tryp A #7]	101 nM
GACGCAUGAGUUGGAACAGCUCAUGGGUCGCGAGGACCGGUACGGCCGCCACUCGGCUGUACAUGAGGAUCACCCAUGUCAGGGU [#1 Same State - Tryptophan A Attempt #30 (HarryS)]	942 nM
AUCGUACCUGAUGAUACCAGCAUGUGCUCGUAACAUGAGGAUCACCCAUGUGAUCAGUGAUGCCCUUGGCAGCAUGAUCGGUACA [Same State - Theophylline B (Freestyle 16)]	14.1 nM
AACAUGAGGAUCACCCAUGUGUCCUCGAAACGAGGACCGGUACGGCCGCCACUCGAAAUAAGCUGUUGACGAAAAGUCAGCAGCA [Mat - Exclusion - Trytophan A - D20]	345 nM
ACAUGAGGAUCACCCAUGUAAUAAUCAGAAGGAGCGUGGAAUAACACAGGUAGGUCGCUGAUGUUUUGUUAAAAUUAUUCGUGAA [JR_SSArginiA_Sub002]	12.9 nM
UGUUUUGUGGGAAGGAGCGCAUACUUCACAUGAGGAUCACCCAUGUCAAGACGUGAGUCAGUGCAGGUAGGUCGCCUAGUUAAGA [Same State - Arginine B (Freestyle 16)]	61.9 nM
UAAUAAGUACCGGUCCUCAGAUCCUCAUGUCGAGGACCGGUACGGCCGCCACUCGAAACAUGAGGAUCACCCAUGUAAUAAUAAU [#06 Exclusion Tryptophan A]	44.3 nM
